{"source": "the DeepSol protein solubility set"}
{"assay": "soluble on expression in E. coli; label from the status in PepcDB or PDB records"}
{"sequence": "VQLLESGPGVVKPSETLSLTCTVSGASVNNYYWTWVRQPPGKGLEWIGNVYDSGDTNYNPSLSSRLSLSMDTSKNQFSLRLSSVTAADTATYYCARYHRHFIRGPLSFDYWGRGTLVTVSSASTKGPSVFPLAPSSKSTSGGTSALGCLVKDYFPEPVTVSWNSGALTSGVHTFPAVLQSSGLYSLSSVVTVPSSSLGTQTYICNVNHKPSNTKVDKKVEPKSCDKTS", "soluble on expression in E. coli": "soluble"}
{"sequence": "VSAPTKPHSPTFKPEPHSAANEPKHPAARPKHVALQQLTGAQAVIRSLEELGVDVIFGIPGGAVLPVYDPLFDSKKLRHVLVRHEQGAGHAASGYAHVTGRVGVCMATSGPGATNLVTPLADAQMDSIPVVAITGQVGRGLIGTDAFQEADISGITMPITKHNFLVRSGDDIPRVLAEAFHIAASGRPGAVLVDIPKDVLQGQCTFSWPPRMELPGYKPNTKPHSRQVREAAKLIAAARKPVLYVGGGVIRGEATEQLRELAELTGIPVVTTLMARGAFPDSHRQNLGMPGMHGTVAAVAALQRSDLLIALGTRFDDRVTGKLDSFAPEAKVIHADIDPAEIGKNRHADVPIVGDVKAVITELIAMLRHHHIPGTIEMADWWAYLNGVRKTYPLSYGPQSDGSLSPEYVIEKLGEIAGPDAVFVAGVGQHQMWAAQFIRYEKPRSWLNSGGLGTMGFAIPAAMGAKIALPGTEVWAIDGDGCFQMTNQELATCAVEGIPVKVALINNGNLGMVRQWQSLFYAERYSQTDLATHSHRIPDFVKLAEALGCVGLRCEREEDVVDVINQARAINDCPVVIDFIVGADAQVWPMVAAGTSNDEIQAARGIRPLFDDITEGHA", "soluble on expression in E. coli": "not soluble"}
{"sequence": "VSEEELKLILAGAEESGAIEPQEEEMIHSILELEETPVREIMTPRVEMVAIEDEATLEDLLALYREHRYSRVPVYRESVDHIVGVAYVQDLLTYYCEEDLKAFKVASIAHPPYFVPENMDAWSLLKELRRRKVHMAIVVDEFGGTAGLVTLEDVIEEIVGEI", "soluble on expression in E. coli": "not soluble"}
{"sequence": "VSGAHTDVRPELRKLAQAILDGIDPAVRVAAAMASGGGPGTGKCQQVWCPLCALAALVTGEQHPLLTVIADHSLALLEVIRAIVDDIDRSAKPPPEGPPGGGQTGASGGENTNGEGSMKSHYQAIPVTIEE", "soluble on expression in E. coli": "not soluble"}
{"sequence": "VSLEDYNLSEDLKVRLDSAEGIFVSGAPGSGKSTFVSALAERYKNMDKIVKTMESPRDLQVDEEITQYAPLEGSMEKTCDILLLVRPDYTIYDEVRKTKDFEIFADMRMAGVGMVGVVHASKAIDSIQRLIGRVELGIIPQIVDTVVFIENGKIGKVYEVEFNVKVPH", "soluble on expression in E. coli": "not soluble"}
{"sequence": "VTNVSWLVTGSMSALSIPGLIFSLRSSHPNLNFTPYLTQSASRIVTMTSMATLSGVTPRNSDWGSEPEATPSHIQIESESDAYLIAPATLDFLARFARYDCSTPFSLALQCTKKPILVAPS", "soluble on expression in E. coli": "not soluble"}
{"sequence": "VTTRQEKAAQTRRDLLDAARVVFERNGYLNATITDITTEAGKAAGSFYNHFDGKEALLLALADDIGDDADALITTSPDDLRNLGPHLAVFWQLQSRHRPVMAALRDAALVDPEFAQRMHDFGI", "soluble on expression in E. coli": "not soluble"}
{"sequence": "VTYNLEKRPTTIVLINDTPLNVLLDTGADTSVLTTAHYNRLKYRGRKYQGTGIGGVGGNVETFSTPVTIKKKGRHIKTRMLVADIPVTILGRDILQDLGAKLVL", "soluble on expression in E. coli": "soluble"}
{"sequence": "VVRVGRRSATFYPPEGAAALIGDFTDWERNPIPLEGPLTLEFPEGAYVEYAFLDREGRPFPDPDNPEKAENPWWSYPRAIKLPGFRYEAPPAPKEEPKVHRHRLGERRFYVAETGPSPKATVVAQDGVAFYRTAGLHKVARALFEAGEIPPVRLVFVEPIDRNTEYRFNEAYEAEFHRVLEEVEGAYGPLNELVLVGASLGGLFSLWQAWRHPERFPKVLALSPALKAHPGGKDAYRDEEWLLARYAEARRLPRVYVEVGLLEWLLGPNRRLAALFADKKVPHAYRERPSGHNWVTWKQALAPGLRYLLGPQ", "soluble on expression in E. coli": "soluble"}
{"sequence": "WNRRTEQLTDGLGAQIDPDSMTPASPADIDTLTAWRQGKIIFKDQPLASVVKEMNRYLPQPITITDHRLDQVRIAGVFNTGDSAAFLQALHKSIPVQVILHADGSTELSLPR", "soluble on expression in E. coli": "not soluble"}
{"sequence": "YAGLSRFTLSYHNVEYKLFGYGTILNNTNFPGGSSGSAVFNKEKQLTSIYFGSLINVTTGNNRNVNLGLGQILRTYNTNNSKHS", "soluble on expression in E. coli": "not soluble"}
{"sequence": "YASQSAGKEYYKHIEKIIVDNDVYEKSLEGERTFDINYQGIKINADLIKDGKHELTIVNKKDGDILITFIKKG", "soluble on expression in E. coli": "not soluble"}
{"sequence": "YCTLADLQLAIPQATLTQLTNDVPADYSVAQEPNLAVVEEAVRQAEELVDAHLRGRYVLPLVTVPSVIKDNTVNLARHWLYARRPEGNELPDAVTRTYKAALQILESIRDGKLHIGVPTGEAAPEPGEVRVRARRQLFSASM", "soluble on expression in E. coli": "not soluble"}
{"sequence": "YEGGWTQDKQWEREMNIAQEKYGPIFAKYAAMPIEEVAKDEHAMKMGSRMFATYCSICHGSDAKGALGFPNLADNEWRWGGDPQSIETTILGGRHAIMAAWGDILGEDGVKNVAAYVRTELAGLKLPEGTKADVEAGKQIFSVNCVACHGPEGKGTALVGAPNLTNPGAFIYGSSYAQLQQTIRHGRQGQMPAQEPYLGKEKVHILAAYI", "soluble on expression in E. coli": "not soluble"}
{"sequence": "YIDILNQARDYVYIMTPYLILDSEMEHALQFAAERGVDVKIIMPGIPDKKVPFALAKRYFPALLDAGVKIYEFTPGFVHAKVFIADDIKAVVGTINLDYRSLYHHFECATYMYQTDCLVDIKADFKETLKQSRRVTRSTLQKEKISTKLIGLVVKLVAPLL", "soluble on expression in E. coli": "not soluble"}
{"sequence": "YIGSQDTPYTGGLINTFSYKNWELTANLSFNLGGYVRTTPSYNFINFDRGQNVNSDILDRWTPENTDGRLPALITSEKRADEYYWYDQKSEIYKNLDIWVKKLNYFRLQNLRLGYRLPEKMTKSLGMGSASVAIEGRNLLVFGSSYKNFLDPESMYNPYAPPIPKSITFSLNLNF", "soluble on expression in E. coli": "not soluble"}
{"sequence": "YNSGKLEEFVQGNLERECMEEKCSFEEAREVFENTERTTEFWKQYEEEEEE", "soluble on expression in E. coli": "soluble"}
